Assay results taken from US20210071247.

What was measured:
[1] = system: AMV reverse transcriptase (Avian myeloblastosis virus); settings: LNA at GATA and GAAC of 3' 12-mer GATAgcttGAAC of SEQ 2 (mC LNA), PS linkages in the 12-mer; iSp18 spacer and 3' amino in DCP1; read-through efficiency, 42 C; lost above 52.5 C
Volcano2G DNA polymerase = Volcano2G DNA polymerase (UniProt P19821); settings: LNA at GATA and GAAC of 3' 12-mer GATAgcttGAAC of SEQ 2 (mC LNA), PS linkages in the 12-mer; iSp18 spacer and 3' amino in DCP1; first strand read-through efficiency vs DTT1, ddPCR, 42 C
[2] = biological target: PrimeScript reverse transcriptase (UniProt P03355); settings: LNA at GATA and GAAC of 3' 12-mer GATAgcttGAAC of SEQ 2 (mC LNA), PS linkages in the 12-mer; iSp18 spacer and 3' amino in DCP1; read-through efficiency, 42 C

Sequence of Volcano2G DNA polymerase (P19821 whole entry): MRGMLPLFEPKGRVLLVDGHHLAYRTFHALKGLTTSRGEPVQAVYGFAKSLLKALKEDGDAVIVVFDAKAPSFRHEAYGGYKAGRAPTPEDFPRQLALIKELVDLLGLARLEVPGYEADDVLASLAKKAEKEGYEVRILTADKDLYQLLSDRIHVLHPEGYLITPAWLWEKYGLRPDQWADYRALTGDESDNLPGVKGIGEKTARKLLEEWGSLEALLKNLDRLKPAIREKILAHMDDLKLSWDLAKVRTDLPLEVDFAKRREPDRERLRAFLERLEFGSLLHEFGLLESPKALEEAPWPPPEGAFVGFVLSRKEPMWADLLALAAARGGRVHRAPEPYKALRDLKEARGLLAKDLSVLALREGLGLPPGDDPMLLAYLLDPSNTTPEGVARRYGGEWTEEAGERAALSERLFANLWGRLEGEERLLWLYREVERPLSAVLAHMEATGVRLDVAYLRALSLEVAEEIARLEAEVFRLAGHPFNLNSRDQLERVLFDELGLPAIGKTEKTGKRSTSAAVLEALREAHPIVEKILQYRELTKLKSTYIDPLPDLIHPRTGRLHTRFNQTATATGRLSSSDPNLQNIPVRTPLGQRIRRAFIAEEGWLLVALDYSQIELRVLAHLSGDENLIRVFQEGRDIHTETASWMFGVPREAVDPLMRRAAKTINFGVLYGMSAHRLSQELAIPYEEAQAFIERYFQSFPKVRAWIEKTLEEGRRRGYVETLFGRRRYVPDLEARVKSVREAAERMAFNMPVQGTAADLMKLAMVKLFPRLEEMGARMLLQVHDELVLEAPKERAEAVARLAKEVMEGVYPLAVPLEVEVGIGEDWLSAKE

GCGTAACTAGACCATAAGCCGATAGCTTGAACCGGACCAGCAAGCTTAGAGATCACGGTATCCAGATTCGCTCATAGTACACAACTGCCTCCGGTTCAA / GCAGTTGTGTACTATGAGCGA [LTT1 template with DCP1_primer1]
activity [1]: 0.1%
activity (Volcano2G DNA polymerase): 10%
activity [2]: 0.1%
